Source: patent US20230226096A1 (Orna Therapeutics, Inc., priority 2020, published 2023)

Test system: HEK293 cells
Type: cell-based, human
Details: luminescence from secreted Gluc in supernatant 24 hours after transfection of HEK293 cells; circular RNA encoding Gluc with the named IRES (UTR truncated to 675 nt)

B1: Avisivirus A (nucleic acid)
DNA: TTCACTCGCTTTCCCCCCCTCTCTATAGGGGCGGTCTTTTAATTCTTATTAATTTCCTACTTTACTATCAAATTTCTTCTAAGTAGGGACTGAGGTCACTTAGCCCTCCCTCTCCTGGGCTTTCCAGGGTTATAGAGGTTCTAAAGCTAAGCCATGTGTCTTGAGCTACACTTAGTACAAAGGTTTAGTAATGATTGTACATGCCAGTAACCTTCTAGTGCCCATGGATTAAAGAGTGGTAACACTCTCCATGGGGCCCGAAAGGCTAGTGGGCATAGTTGGCATCAAGGAAGGGGTCCCCACCCCAACCTGAATTGCTGGCTAGAAGCTCACCTTAGAAGAAGTGCTGGGTGACAACGTGTCCAATCGTGAACGACTGATGGAAACGTGTGGAGATGGATATGTGGGGGTTCACTGAGTAGATGCCCTGAAGGAGAAATCTGATCAGGGGCCCGTGACTATACGCTAGGTAAACCGGGTATAAAAACCATGAAAGGTGGCCCAAAATCTCTTCCTTTTATTTTATTTCTATGTTGGTGACAGTCAAG
modifications: Avisivirus A
B1 was tested. Which Expression did it give?
Its Expression is 1.91E+05.

B2: Avisivirus B (nucleic acid)
DNA: CACCCCCTACTGCCCTAACCCCCAAAGTTAGTTATAGGGTGGCTCCCTACCCTTACTCCACGGGGTAAGCCCTAACCCGGTTGAATCTCAAGATCAGCCTTAGCGAGGACTATTAGTACCGCTCAAACCCTTTGCCTGTAGTGCCCAGGGGTCACAGAGGGGTGACCCTCTCCCTGGGGCCCAAAAGGCTAGGTGGCAAGACAGGGTCCAAGTGAGGGGCTACTCTAAGTAGCCCCAAGCTGAACATCCTGTCTGAAGCCACCCTTGCAGGGCCAGGTTTGATTGGGGAAACTAGACACCAGCTTTGTCCTGGGATTGGGGGGATATCGAGTTAGTCCAGGAGGTGCGAGTAGATGCCCCCGAAGGTACCCCAGGCACATCTGGGATCTGATCGGGGGCCCGTGACTATACAATAGGTAAACCGGGTTAAAAAACATGAAAGCGCCTCTCTCTTTCCTACTTCTTTTATTGACTGGTGACAAAAATAGCAGT
modifications: Avisivirus B
Which Expression does the source give for B2 here?
The Expression was 8.68E+04.

B3: Crohivirus A (nucleic acid)
DNA: GTTGAAGTCCATTTCTTGCTTGCCCCCGATGAATCCTGTTAAGGCCTCACGGCCCTAAGGGTGAAACTCGGTTATCCCCTCCTGTACTTCGAGAAGATTAGTACAACACTATGAAATCTACATCTTGTGATCCGGGATAACCCCAATCCCAGAAACCTGTGATGGGCGTCACCACCCCTCTTATGGTAACATAAGGGTGTCGCCGCGTTGGCACAGGACCCTTTGGGCTGGATGTTTTTAGTAATGGTGTCGAAGGTCCTATTGAGCTACAGGAGTTTCCTCCGCCCTGGTGAATGCGGCTAATCTTATCCCTGAGCCTAAGGTTGCGATCCAGCAACTTGATGGTCGTAATGCGTAAGTTGGGGGCGGAACCGACTACTTTCCAGAAGGCGTGTTTCTTTGTTTTGTCTGTTACTATGGTGCATGATATAGATATTGAATATTTGATCTTTTTGAGCTGTTTCTTATCTTATTGCTACATCCTTTCAGGTGTTGGATTTACATTTTGGTTAATAAG
modifications: Crohivirus A
For B3, which Expression is on record?
Its Expression is 9.96E+04.

B4: Kunsagivirus B (nucleic acid)
DNA: GATTTTCTGGTTATCCCTTTTGGACTTGGTAGGGGCCCACGTGCCCACCCACCTCTGTGTGTGTTGATTTCTAATCGATGCCTGGCAGTGGCGGCCACCTCTCCTTACTGGTAAACCTCCGGTGAGTGAAGTTGTCAAGCTACAGGTACCGTGCAGGATGAAATGCGCACATGTGAACAAACTAGGAGTCATACACCGGGTCAAACTCTGGAAACGGAGTCCGGGACTCTGACCTTGGTTGGGTGAGCTCGAGGCATCACATTGATGGACGCGATTCGCTATCCTTCCCTAGTAGGACCTTGTGGTGTACCCCTGGTTGGGAATCCAGGGCTGGTCGGGTGCAGGGTGACAGCCTGTTCTCCACCTCAACCATTGTAGGAGAAATCAACCCCT
modifications: Kunsagivirus B
B4 was tested. Which Expression did it give?
Its Expression is 8.01E+04.

B5: Limnipivirus A (nucleic acid)
DNA: TTCTTTGGATATCCATTTAACGTGTACCCTATACGATAATTGGGGTGGATTCTGGATGCCTAGTTCCAGTGATTGGTTAAGAACTCGTTTACTACGTATAGTATGATTAGCAAAGTGCTCGATTGATCACGTAATGATCTATGTGGTTAAAAACCCAGTAGTATGGTATATACTCAGTAGTGTACACTGTGAGTACAACTCTTGGCGTAGAGAGAACAATTCACCCGAATCCGTGGCGTATCCATGGAAATAAGTTTACCTAATTGTATGTTACAAGGCATATGAGACATTTATGAGATATGGTTTATTTTGACTAAACGAGTGTAGAGGTGGTGGAGTCTATCCAACTTCAAGCCATGCAATTGTTGTGTTGATTGATATCATTGACCATTTTTGTGGATTGTGTACACATACAATTTGAAAATTAACCCCCTCAAGAATAAGACATGGGACCATTCGTGGTAGATACCGTGCTCGGATGCTTGAGATTAGATGGGTTAGACTAGTTTTGGAATGAGATTGCCGAGAAAGTCCCGCTAGACATGTTTTACAAGTCGTGGTATTCCGCTAGACTTTTTCGCAGACACATGGAAGGGTCCATGTGTTGTGCAATTGCAGGGTGACAGCCCAACTGCAGAGTTTTCCTTACTAGAATAAAAATCTGTTGTCAATTTT
modifications: Limnipivirus A
B5 was tested. Which Expression did it give?
Its Expression is 8.30E+04.

B6: Limnipivirus C (nucleic acid)
DNA: GTTTCTGAGCACTGGTAAGAGCTTAGACAAACGTTTTTAAAATTTATTTTCTCTGCAACTTTTGTTTGTGTTTATTTTTATTTGTTAATTTTGCGCCTAAGCATTTGTTGCGAAGTATTTGATTCATTAGTAATATTACTTATTGTTTATTTAGATGGTATTCAAAGTGGTGGGAGTATCGAACCCAAGCGTCGTATGCTATCTCCTTGAACAATTTTTAATCATTGCGAAGTGATCATTGAAAAGGATAGGTGTTTAAGAACTCAAAGAGTGTTAATAATGTTGGGTGACAGGTGTCCCCATAGAATTTATTAACATGATTTGGACTGGTTATCTAGTAAGAAGAACCATCGAACGCACGAGCGAGCATTGCTTGCGGGGCAGTTACCCTGCGTCGATGTAAGTGTGTACCGGGGGGTGCACATGTTGATTCTTTATGGCCTGATAGGGTGCGTCATTCGCGCCTAGATAATTAGTATAATGCGAATGGAATAAATTTAC
modifications: Limnipivirus C
With B6 as the molecule, how does the Expression read?
Its Expression is 1.35E+05.

B7: Orivirus (nucleic acid, listed as Orivirus sp.)
DNA: GGTCCCAGGCCAATATTCTTCGTAAGGCTTGGTTCCAATTTTCCACCACTCGTGTTTGGGTTCTGGCCTATGGTACCCAGAGGGGCGGTTTGGGGGAATTAACTCCCCCTCCCCTGTGGTCCTATACCACCCCACACCTCTGTGGGCTTTCTTTACTATCTTCTTGTTTTCCGACTTTTAAACACTAGGCAGGCGCGCCTAGTCATACACCGCCCGGCTGGTCTTTCCAGCTCTTGTGGGCGGTGCGCGCTGGTCCATCGTGCCCAGCGACATAGCACCTTGTGGACACCTCCGAACGCCCTCCCCTGTATGGGGTGGTGCCCAGGGGTTTCAGTGTGGTGACACACTCCCTGGGGCCCGAAAGGCTAGTGTGCAACAGGTGAGGTACAGCCAGCTGCCCCCGTGGCTGGAGGGACCAAGCTTGTGAAGCACACCTCACCTTCTTGGGGGTGGGCTAGTAAGTGGTGAAAGCATAGTGTCCGTGTCGCTGGCCAACACTTTGGGTCAAGTCCAGCCACTCAGTGAGTAGATGCCCAGGAGGTACCCCTAGTGGATCTGACTTGGGGCCTGTTACTTAATGCAGGTTAAAAACTATGAAAGCTGAGTAGTGTAGCCCGGCTGGTGGCTTCTCTTCCTTATTCATTCTATTTTATGGTGACAAACGCAACTGAAGCC
Which Expression does the source give for B7 here?
Its Expression is 6.09E+05.

B8: HAV FH1 (nucleic acid)
DNA: CTTGATACCTCACCGCCGTTTGCCTAGGCTATAGGCTAAATTTCCCTTTCCCTGTCCTTTCCCTATTTCCTTTTGTTTTGTTTGTAAATATTAATTCCTGCAGGTTCAGGGTTCTTTAATCTGTTTCTCTATAAGAACACTCAATTTTCACGCTTTCTGTCTCCTTTCTTCCAGGGCTCTCCCCTTGCCCTAGGCTCTGGCCGTTGCGCCCGGCGGGGTCAACTCCATGATTAGCATGGAGCTGTAGGAGTCTAAATTGGGGACGCAGATGTTTGGGACGTCGCCTTGCAGTGTTAACTTGGCTTTCATGAACCTCTTTGATCTTCCACAAGGGGTAGGCTACGGGTGAAACCTCTTAGGCTAATACTTCTATGAAGAGATGCCTTGGATAGGGTAACAGCGGCGGATATTGGTGAGTTGTTAAGACAAAAACCATTCAACGCCGAAGGACTGGCTCTCATCCAGTGGATGCATTGAGGGAATTGATTGTCAGGGCTGTCTCTAGGTTTAATCTCAGACCTCTCTGTGCTTAGGGCAAACACTATTTGGCCTTAAATGGGATCCTGTGAGAGGGGGTCCCTCCATTGACAGCTGGACTGTTCTTTGGGGCCTTATGTGGTGTTTGCCTCTGAGGTACTCAGGGGCATTTAGGTTTTTCCTCATTCTTAAACAATA
modifications: Hepatovirus A
Which Expression does the source give for B8 here?
Its Expression is 1.24E+05.

B9: Halastavi arva (1x mut) (nucleic acid)
DNA: CTTGATTCTAACCTTGCCGTATGGTGCCCTAACGGGTTCATTTAATCATGCGATGAGGGTTGCTATACCGCATCCATTCTAAGGCGATTCAATGCTTCATTTAGGAATTTTGTTGACGATTAAAAGGTACCCCCACAAAAACAAAACCAATCTTACTTGATTTTCGTTTTAACTGACCACTGCGATCCCAAATTTTCGCCTTCTTATCAAAGTATGTTGTGTTCTTTGGGTGTACAACCTGAGAACTTGTCTACAACTACATATTACTCGAGGAAGAAATTCGGTTTAAGCCGTGCCTTCTCACGTTTAGTATATCTATCTGGACACACCTTCTTCATCTTCTAATCCCCATCTAGTCTCCTGATCAGAGACGTCGTTATTAACAAATAACCCCCCTTGTTAATAAGAGACAAAGTACAATCAAGCTAAGTTCTCTTGGAGTTCCTGTAGGAACTTAGCCATTGTGATAGAGTCATAAGTCTATGTGCATAGACAGCTCTAGCTCACCATTTCCTTCCCAACCCATCTTTTCATCAGCTTAACTCTATGAATCCGATGCAAAAACCATTCTAACATCTTATGGTGCTTTCCAAGCCAAATGAGAGCTCACTCTTTTGAGCCGCTATTTAATGGACAATAAACGTTTTATAGTGTACATCATATTGTAAAAACAAA
B9 was tested. Which Expression did it give?
The Expression was 9.46E+04.
